Residue numbers refer to the chain shown, from its start.
B1: YK-RSV-033 (protein)
chain: QNITEEFYQSCCSAVSKGYLGALRTGWYTSVITIELSNIKENKCNGTDAKVKLIKQELDKYKNAVTDLQLLMQSTPATGSGSAIASGVAVSKVLHLEGEVNKIKSALLSTNKAVVSLSNGVSVLTFKVLDLKNYIDKQLLPILNKQSCSIPNIETVIEFQQKNNRLLEITREFSVNAGVTTPVSTYMLTNSELLSLINDMPITNDQKKLMSNNVQIVRQQSYSIMSIIKEEVLAYVVQLPLYGVIDTPCWKLHTSPLCTTNTKEGSNICLTRTDRGWYCDNAGSVSFFPQAETCKVQSNRVFCDTMNSRTLPSEVNLCNVDIFNPKYDCKIMTSKTDVSSSVITSLGAIVSCYGKTKCTASNKNRGIIKTFSNGCDYVSNKGVDTVSVGNTLYYVNKQEGQSLYVKCEPIINFYDPLVFPSDEFDASISQVNEKINQSLAFIRKSDELLHNVNAGKSTTNIMITTIIIVIIVILLSLIAVGLLLY
B2: YK-RSV-042 (protein)
chain: B1 chain with C11T, Y19C, S255C, C407G
B3: YK-RSV-041 (protein)
chain: B1 chain with C11T, S16C, S255C, C407G
B4: YK-RSV-053 (protein)
chain: B1 chain with C11T, A85C, Y242C, C407G
B5: YK-RSV-029 (protein)
chain: B1 chain with T4C, C11T, Q401C, C407G
B6: YK-RSV-032 (protein)
chain: B1 chain with Q9C, C11T, K406C, C407G
B7: YK-RSV-004 (protein)
chain: QNITEEFYQSTCSAVSKGYLGALRTGWYTSVITIELSNIKENKCNGTDAKVKLIKQELDKYKNAVTDLQLLMQSTPATGSGSAICSGVAVCKVLHLEGEVNKIKSALLSTNKAVVSLSNGVSVLTIKVLDLKNYIDKQLLPIVNKQSCPISNIETVIEFQQKNNRLLEITREFSVNAGVTTPVSTYMLTNSELLSLINDMPITNDQKKLMSNNVQIVRQQSYSIMCIIKEEVLAYVVQLPLYGVIDTPCWKLHTSPLCTTNTKEGSNICLTRTDRGWYCDNAGSVSFFPQAETCKVQSNRVFCDTMNSRTLPSEVNLCNVDIFNPKYDCKIMTSKTDVSSSVITSLGAIVSCYGKTKCTASNKNRGIIKTFSNGCDYVSNKGVDTVSVGNTLYCVNKQEGQSLYVKGEPIINFYDPLVFPSSEFDASISQVNEKINQSLAFIRKSDELLHNVNAGKSTTNIMITTIIIVIIVILLSLIAVGLLLY
B8: YK-RSV-013 (protein)
chain: B1 chain with C11T, T78C, I84C, L143V, Y394C, C407G, D422S
B9: YK-RSV-016 (protein)
chain: B1 chain with Q9C, C11T, T33L, A85C, L143V, Y394C, D422S
B10: YK-RSV-008 (protein)
chain: B1 chain with C11T, S30C, L124C, F126I, L143V, C407G, D422S
B11: YK-RSV-019 (protein)
chain: B7 chain with S30C, C91S, L124C, I126F, P149S, S151P, T155I, C226S

System: RSV pre-F antibody (3C12)
Experiment: Binding of epitope Φ of RSV F antigen mutants by flow cytometry
Details: binding rate, flow cytometry, 293T cells 16 h after mRNA-LNP transfection
Source text: (§1) To investigate whether the RSV F antigen mutants have pre-fusion epitopes, an RSV pre-F antibody (3C12) (specifically binding to the RSV pre-F epitope […]) and an RSV F antibody (11A9) (binding to pre-F and post-F epitopes II) were detected by flow cytometry in this example, and RSV F protein mutants in the pre-F conformation were expected to bind to the antibodies tested.
(§2) • 293T cells (purchased from ATCC cell bank); RSV pre-F antibody (3C12), epitope […] (Novoprotein, Cat. No.: DA101); RSV F antibody (11A9), epitope II (Novoprotein, Cat. No.: DA091); • experimental groups: mRNA vaccines corresponding to the expressed antigens in Example 3;
(§3) • (1) Cell transfection: 293T cells were seeded at 1.3×10^5 cells/well in a 24-well plate. The next day, mRNA-LNP samples (containing 300 ng of mRNA) were added directly to the cells, and the mixture was uniformly mixed. • (2) Cell collection: The cells were taken out of the incubator after 16 h of transfection, the medium was pipetted off, 500 μL of 0.1% BSA solution was pipetted to wash the medium remaining in the well plate, taking care not to resuspend the cells, and the 0.1% BSA solution was pipetted off. 500 μL of 0.1% BSA solution was added to each well, and the cells were pipetted and transferred to a 1.5 mL centrifuge tube. • (3) Centrifugation: The cells were harvested by centrifugation at 400 g for 5 min at 4° C. in the dark, and the supernatant was discarded. • (4) Straining: 50.6 μL of RSV fluorescent antibody diluent was added to each of the control sample and the test samples to resuspend the cells, and the samples were incubated at 4° C. for 2 h in the dark. • (5) Cleaning: After the incubation was completed, 500 μL of 0.1% BSA solution was added to each tube, the cells were harvested by centrifugation at 400 g for 5 min at 4° C. in the dark, and the supernatant was discarded. This operation was repeated three times. • (6) Resuspension of cells: 200 μL of 0.1% BSA solution was added to each sample, and the cells were carefully pipetted to prepare a cell suspension. • (7) Detection on flow cytometer: The […] of RSV F mutants to antibodies were measured using flow cytometry, with 1×10^4 cells detected in each measurement.
(§4) The RSV pre-F antibody (3C12) used in this example specifically binds to the RSV pre-F epitope Φ, and the RSV F antibody (11A9) binds to the pre-F and post-F epitopes II. Whether the pre-fusion conformations of the RSV F mutants are stable can be further determined by detecting the binding of the epitope Φ and the epitope II on the mutants to corresponding epitopes of antibodies 3C12 and 11A9, respectively, by flow cytometry.

Molecule | RSV pre-F antibody (3C12) Epitope Φ (%)
B1 | 72.0
B2 | 49.8
B3 | 73.7
B4 | 40.0

Same assay, conditions: flow cytometry; epitope Φ, antibody 3C12

Molecule | RSV pre-F antibody (3C12) Epitope Φ (%) binding rate [%]
B5 | 79.6
B6 | 86.1
B7 | 82.1
B8 | 89.3
B9 | 79.8
B10 | 83.9
B11 | 84.5

Same assay, conditions: ratio of epitope Φ (3C12) to epitope II (11A9) binding rate

Molecule | Φ/II (%)
B5 | 91.8
B1 | 87.4
B2 | 81.5
B3 | 90.4
B6 | 90.8
B7 | 91.1
B8 | 94.7
B9 | 95.7
B4 | 59.7
B10 | 90.7
B11 | 93.5

System: RSV F antibody (11A9)
Experiment: Binding of epitope II of RSV F antigen mutants by flow cytometry
Details: binding rate, 293T cells 16 h after mRNA-LNP transfection
Source text: as §1, §2, §3, §4

Molecule | RSV F antibody (11A9) Epitope II (%)
B1 | 82.4
B2 | 61.1
B3 | 81.5
B4 | 67.0

Same assay, conditions: epitope II, antibody 11A9

Molecule | RSV F antibody (11A9) Epitope II (%) binding rate [%]
B5 | 86.7
B6 | 94.8
B7 | 90.1
B8 | 94.3
B9 | 83.4
B10 | 92.5
B11 | 90.4

System: RSV pre-F antibody (3C12)
Experiment: not given
Format: physicochemical
Details: high osmotic pressure 3000 mM, room temperature, 60 min; ELISA binding to 3C12
Source text: To investigate the stability of the RSV F antigen mutants under different pH, temperature, osmotic pressure and other conditions, the mutants were subjected to stress tests under different treatment conditions in this example.
• 293T cells (purchased from ATCC cell bank); • Primary antibody: RSV pre-F antibody (3C12), epitope Φ (purchased from Suzhou Novoprotein Scientific Co., Ltd. (hereinafter referred to as Novoprotein), Cat. No.: DA101); • Standard: RSV pre-F trimer protein (Novoprotein, Cat. No.: DRA230); • Secondary antibody: peroxidase AffiniPure goat anti-human IgG (H+L) (purchased from Yeasen Biotechnology (Shanghai) Co., Ltd. (hereinafter referred to as Yeasen), Cat. No.: N/A); • Experimental group: mRNA vaccines after screening in Example 4;
Coating: A 96-well microplate was coated with a working solution and incubated at 2 to 8° C. for 16 to 20 h.
Plate washing: Phosphate buffered saline PBST was added to each well, and the plate was washed 5 times using a plate washer and patted dry on absorbent paper.
Blocking: After a blocking solution was added, the […] were placed on a constant temperature microplate shaker and incubated at 400 rpm for 1.5 h at 37° C.
Plate washing: PBST was added to each well, and the plate was washed 5 times using a plate washer and patted dry on absorbent paper.
Primary antibody incubation: A primary antibody dilution was added to each well, and the plate was sealed with a sealing film, and then incubated at 400 rpm for 1.5 h at 37° C.
Secondary antibody incubation: A secondary antibody dilution was added to each well, and the plate was sealed with a sealing film, and then incubated at 400 rpm for 45 min at 37° C.
Color development: A chromogenic solution was added, and the plate was sealed with a sealing film, and then placed on a constant temperature microplate shaker and incubated at 400 rpm for 25 min at 37° C.
Reaction stopping: After the color development was completed, a stop buffer was added at […] to the microplate to stop the reaction.
Plate reading: Absorbance values (OD values) were read within 5 min using a multimode microplate reader, with dual wavelengths of 450 nm and 630 nm set.
In this example, stability screening of the mutants through different treatment conditions was defined as a stress test, including storage at 4° C. for one week; incubation at 50° C. for 60 min; treatment at room temperature under low osmotic pressure and high osmotic pressure conditions for 60 min; treatment at room temperature under acid and base conditions for 60 min. The binding of the mutants to the RSV pre-F antibody (3C12) recognizing the epitope Φ was detected by ELISA.

Molecule | Stress resistance parameter, Osmotic pressure (mM) 3000
B5 | 0.40 ± 0.01
B6 | 0.37 ± 0.02
B7 | 0.46 ± 0.13
B8 | 0.43 ± 0.04
B9 | 0.53 ± 0.07
B10 | 0.33 ± 0.02
B11 | 0.63 ± 0.04

Same assay, conditions: incubation at 50° C. for 60 min; ELISA binding to 3C12

Molecule | Stress resistance parameter, Temperature (° C.) 50
B5 | 0.57 ± 0.08
B6 | 0.78 ± 0.02
B7 | 0.48 ± 0.05
B8 | 0.91 ± 0.23
B9 | 0.80 ± 0.01
B10 | 0.45 ± 0.08
B11 | 0.58 ± 0.05

Same assay, conditions: low osmotic pressure 10 mM, room temperature, 60 min; ELISA binding to 3C12

Molecule | Stress resistance parameter, Osmotic pressure (mM) 10
B5 | 0.61 ± 0.05
B6 | 0.66 ± 0.14
B7 | 0.91 ± 0.23
B8 | 0.59 ± 0.08
B9 | 0.77 ± 0.08
B10 | 0.81 ± 0.09
B11 | 0.81 ± 0.04

Same assay, conditions: pH 3.5, room temperature, 60 min; ELISA binding to 3C12

Molecule | Stress resistance parameter, pH 3.5
B5 | 0.63 ± 0.03
B6 | 1.01 ± 0.35
B7 | 0.97 ± 0.21
B8 | 0.84 ± 0.19
B9 | 0.91 ± 0.06
B10 | 0.76 ± 0.21
B11 | 0.77 ± 0.05

Same assay, conditions: pH 10, room temperature, 60 min; ELISA binding to 3C12

Molecule | Stress resistance parameter, pH 10
B5 | 0.82 ± 0.01
B6 | 0.98 ± 0.06
B7 | 1.00 ± 0.27
B8 | 0.92 ± 0.04
B9 | 0.98 ± 0.14
B10 | 0.99 ± 0.19
B11 | 0.88 ± 0.09

Same assay, conditions: storage at 4° C. for one week; ELISA binding to 3C12

Molecule | Stress resistance parameter, Temperature (° C.) 4
B5 | 0.32 ± 0.06
B6 | 0.34 ± 0.08
B7 | 0.72 ± 0.06
B8 | 0.69 ± 0.11
B9 | 0.28 ± 0.05
B10 | 0.65 ± 0.06
B11 | 0.37 ± 0.08

Source: patent US12514920B1, “Respiratory syncytial virus mRNA vaccine, and preparation method therefor and use thereof” (Hangzhou Tianlong Pharmaceutical Co., Ltd., priority 2024, dated 2026)
